Assay results reported in patent US12258605B2, “Alkane oxidation by modified hydroxylases” (The California Institute of Technology, priority 2005, dated 2025).

Assays:
[1] = Substrate profile on C2 to C10 alkanes (TTN normalized, MTN); type: biochemical; conditions: highest TTN in the alkane series
Experimental: Reactions on alkanes. Reactions with alkanes from pentane to decane were carried out at 3 mL-scale using 100 mM KPi pH 8.0 buffer containing 2% ethanol (to allow alkane solubilization) and purified protein. 2.5 mL KPi buffer were added with 60 μL of 90 mM alkane solution in ethanol (final conc.=1.8 mM), 150 μL enzyme solution at 1 μM (final conc.=50 nM), and 300 μL NADPH regeneration solution (100 units/mL isocitrate dehydrogenase, 70 mg/mL isocitrate, 1.5 mg/ml NADP^+). Vials were sealed and stirred for 24 hours at 4° C. 1 mL-aliquot of the reaction was removed, added with 10 μl internal standard (25 mM 1-bromohexane in ethanol), and extracted with 200 μl chloroform (30 sec vortexing, 1 min centrifugation at 10000 g). The organic phase was removed and analyzed by gas chromatography. Reactions with ethane, propane, and butane were carried out as described for longer alkanes with the only difference that alkane-saturated KPi buffer was used. […] Propane and butane reactions were analyzed by direct injection of reaction solution on the GC using 1-pentanol as internal standard. Ethane reaction products were functionalized (see below) and analyzed by GC using 1-butanol as internal standard. […]
TTNs for each variant-substrate pair were determined using standardized reaction conditions (identical enzyme and substrate concentration, incubation time, cofactor regeneration system) (Table 18). […]

[2] = Ethane hydroxylation to ethanol (rate, total turnover); type: biochemical
Experimental: Ethane hydroxylation by 53-5H was measured after 12-hour incubations of the enzyme in ethane-saturated buffer containing an ethanol-free NADPH regeneration system (commercial NADPH contains 2-3% ethanol). While the reaction is uncoupled to NADPH oxidation in the presence of ethane (660 min-1, see Table 2), 53-5H nevertheless consistently produces at least 50 equivalents of ethanol independent of the starting concentration of enzyme (see FIGS. 2 and 3). Over oxidation was tested by supplying ethanol as a substrate and monitoring ethanol depletion by gas chromatography and the production of acetaldehyde and acetic acid by ^13C NMR using ^13C-labeled ethanol. No (i.e. less than 10%, the detection limit of these experiments) over oxidation products were detected in these experiments (see FIG. 4). In general, the hydrophobic active sites in P450s assist in the release of singly-hydroxylated products.
Reactions on ethane were carried out similarly to those described for propane (Peters et al., J. Am. Chem. Soc. 125:13442 (2003); incorporated by reference herein). Because commercially-available NADPH contains 2-3% ethanol, an NADPH regeneration system was used. Thereby, the background ethanol concentration was reduced to approximately 1 μM. Ethane hydroxylation reactions were performed in 20 mL glass vials. A 5.0 mL reaction mixture contained 100, 200 or 500 nM purified protein in 0.1 M potassium phosphate buffer (pH 8.0) saturated with ethane and dioxygen. […] The vial was immediately topped with a septum, pressurized with 20 psi of ethane and stirred at 25° C. For determination of total turnover, the reaction was allowed to proceed for four hours. For rate determination the reaction was stopped at 0, 15 and 30 min. 50 μL of 5 mM 1-butanol was added to the reaction mixture as an internal standard. Ethanol and 1-butanol were subsequently derivatized to their corresponding alkyl nitrites. Control reactions were performed by repeating these steps without substrate and with inactivated protein, to correct for background levels of ethanol. […] Reactions with ethane and corresponding control reactions without ethane or with inactivated protein were carried out in triplicate. […]
Rates of ethanol formation were measured over 30 min using gas chromatography (GC) coupled to an electron capture detector (ECD) and are reported as nmol ethanol/min/nmol enzyme. […] Total turnover number (ttn) was measured using GC after completion of the reaction and is reported as nmol product/nmol protein. […] Initial rates of propanol and octanol formation were measured over 1 min by GC and are reported as nmol product/min/nmol protein. […] The “ee” of 2-octanol (main product) was measured by GC; the favored enantiomer is listed in parenthesis. […]

Molecule | MTN (Maximal Turnover Number) [1] | ethanol produced ([2]; 200 nM of mutant, typical reaction with ethane) | Ethane ttn ([2]; after completion of the reaction) | increase in total turnover of ethane to ethanol ([2]; compared to 53-5H) | Ethane Rate ([2]; ethanol formation over 30 min, GC-ECD, dash = no activity)
Wild-type BM-3: wild-type cytochrome P450 BM-3 from Bacillus megaterium, SEQ ID NO:1 (protein, listed as Bacillus megaterium) TIKEMPQPKTFGELKNLPLLNTDKPVQALMKIADELGEIFKFEAPGRVTRYLSSQRLIKEACDESRFDKNLSQALKFVRDFAGDGLFTSWTHEKNWKKAHNILLPSFSQQAMKGYHAMMVDIAVQLVQKWERLNADEHIEVPEDMTRLTLDTIGLCGFNYRFNSFYRDQPHPFITSMVRALDEAMNKLQRANPDDPAYDENKRQFQEDIKVMNDLVDKIIADRKASGEQSDDLLTHMLNGKDPETGEPLDDENIRYQIITFLIAGHETTSGLLSFALYFLVKNPHVLQKAAEEAARVLVDPVPSYKQVKQLKYVGMVLNEALRLWPTAPAFSLYAKEDTVLGGEYPLEKGDELMVLIPQLHRDKTIWGDDVEEFRPERFENPSAIPQHAFKPFGNGQRACIGQQFALHEATLVLGMMLKHFDFEDHTNYELDIKETLTLKPEGFVVKAKSKKIPLGGIPSPSTEQSAKKVRKKAENAHNTPLLVLYGSNMGTAEGTARDLADIAMSKGFAPQVATLDSHAGNLPREGAVLIVTASYNGHPPDNAKQFVDWLDQASADEVKGVRYSVFGCGDKNWATTYQKVPAFIDETLAAKGAENIADRGEADASDDFEGTYEEWREHMWSDVAAYFNLDIENSEDNKSTLSLQFVDSAADMPLAKMHGAFSTNVVASKELQQPGSARSTRHLEIELPKEASYQEGDHLGVIPRNYEGIVNRVTARFGLDASQQIRLEAEEEKLAHLPLAKTVSVEELLQYVELQDPVTRTQLRAMAAKTVCPPHKVELEALLEKQAYKEQVLAKRLTMLELLEKYPACEMKFSEFIALLPSIRPRYYSISSSPRVDEKQASITVSVVSGEAWSGYGEYKGIASNYLAELQEGDTITCFISTPQSEFTLPKDPETPLIMVGPGTGVAPFRGFVQARKQLKEQGQSLGEAHLYFGCRSPHEDYLYQEELENAQSEGIITLHTAFSRMPNQPKTYVQHVMEQDGKKLIELLDQGAHFYICGDGSQMAPAVEATLMKSYADVHQVSEADARLWLQQLEEKGRYAKDVWAG | 150 |  |  |  | 
35-E11: P450 BM-3 variant, SEQ ID NO:7: 53-5H substitutions plus E464G and I710T (protein, mutant P450 35-E11 protein sequence) TIKEMPQPKTFGELKNLPLLNTDKPVQALMKIADELGEIFKFEAPGCVTRYLSSQRLIKEACDESRFDKNLSQALKFFRDFSGDGLFTSWTHEINWKKAHNILLPSFSQQAMKGYHAMMVDIAVQLVQKWERLNADEHIEVSEDMTRLTLDTIGLCGFNYRFNSFYRDQPHPFIISMVRALDEVMNKLQRANPDDPAYDENKRQCQEDIKVMNDLVDKIIADRKARGEQSDDLLTQMLNGKDPETGEPLDDGNISYQIITFLIAGHETTSGLLSFALYFLVKNPHVLQKVVEEAARVLVDPVPSYKQVKQLKYVGMVLNEALRLWPTFPAFSLYAKEDTVLGGEYPLEKGDEVMVLIPQLHRDKTIWGDDVEEFRPERFENPSAIPQHAFKPFGNGQRACIGQQFALHEATLVLGMMLKHFDFEDHTNYELDIKETLTLKPEGFVVKAKSKKIPLGGIPSPSTGQSAKKVRKKAENAHNTPLLVLYGSNMGTAEGTARDLADIAMSKGFAPQVATLDSHAGNLPREGAVLIVTASYNGHPPDNAKQFVDWLDQASADEVKGVRYSVFGCGDKNWATTYQKVPAFIDETLAAKGAENIADRGEADASDDFEGTYEEWREHMWSDVAAYFNLDIENSEDNKSTLSLQFVDSAADMPLAKMHGAFSTNVVASKELQQPGSARSTRHLEIELPKEASYQEGDHLGVIPRNYEGTVNRVTARFGLDASQQIRLEAEEEKLAHLPLAKTVSVEELLQYVELQDPVTRTQLRAMAAKTVCPPHKVELEALLEKQAYKEQVLAKRLTMLELLEKYPACEMKFSEFIALLPSIRPRYYSISSSPRVDEKQASITVSVVSGEAWSGYGEYKGIASNYLAELQEGDTITCFISTPQSEFTLPKDPETPLIMVGPGTGVAPFRGFVQARKQLKEQGQSLGEAHLYFGCRSPHEDYLYQEELENAQSEGIITLHTAFSRMPNQPKTYVQHVMEQDGKKLIELLDQGAHFYICGDGSQMAPAVEATLMKSYADVHQVSEADARLWLQQLEEKGRYAKDVWAG |  | over 50 μM | 250 nmol product/nmol protein | five-fold | 0.4 nmol ethanol/min/nmol enzyme
